Consider 2 substances from patent US7588893.

Experiment [1] concerns the target poly-CT oligonucleotide tagged rabbit IgG. Description: fluorescent microspheres on the poly-GA microspot carrying Poly-CT-Rabbit IgG, confocal laser scanning, ex 568 / em 585.
The target of experiment [2] is poly-GT oligonucleotide tagged anti-TSH mouse monoclonal IgG. Description: fluorescent microspheres on the poly-CA microspot carrying Poly-GT-Mouse IgG, confocal laser scanning, ex 568 / em 585; control 22.0 ± 0.2.
In experiment [3] the target is poly-CT oligonucleotide tagged rabbit IgG. Nature of the experiment: fluorescent microspheres on the poly-GA microspot carrying Poly-CT-Rabbit IgG, confocal laser scanning, ex 488 / em 525; control 13.3 ± 0.5.
The target of experiment [4] is poly-GT oligonucleotide tagged anti-TSH mouse monoclonal IgG. Nature of the experiment: fluorescent microspheres on the poly-CA microspot carrying Poly-GT-Mouse IgG, confocal laser scanning, ex 488 / em 525.

In the case of “goat anti-rabbit IgG (whole molecule) antibody conjugated red FLUOSPHERES”, the Red Signal in experiment [1] turned out to be 99.8; in experiment [2] it was 24.

Consider “goat anti-mouse IgG (whole molecule) antibody conjugated yellow-green FLUOSPHERES”, for which the Yellow/Green Signal in experiment [3] came to 16.9; in experiment [4] it was 101.
